Starred links: 1 amine or outer side, 2 acyl side, 3 side chain; linkers in the order of their positions; H or OH if unused. Positions of bridges follow the written chain, without caps; N, C: chain ends. Non-standard residues stand in square brackets, D forms with d. Primed or numbered codes have the meaning given here. PyrS2″ = (S)-3-amino-1-((pent-4-en-1-yloxy)carbonyl)pyrrolidine-3-carboxylic acid (stapling residue), C=CCCCOC(=O)N1CC[C@@](N[*:1])(C(=O)[*:2])C1; B5(3) = 2,2-bis(4-pentenyl)glycine (stitching residue), C=CCCCC(CCCC=C)(N[*:1])C(=O)[*:2]; Phe(3-COOH) = N[C@@H](Cc1cccc(C(=O)O)c1)C(=O)O; Bta = N[C@@H](Cc1csc2ccccc12)C(=O)O; αAllylPro = C=CC[C@@]1(C(=O)O)CCCN1; tBuAla = CC(C)(C)C[C@H](N)C(=O)O; 3Thi = N[C@@H](Cc1ccsc1)C(=O)O; PyrS2(4) = not defined here
T1: B-cat-Halo (Homo sapiens (Human), UniProt P35222 1-781)
T1 sequence: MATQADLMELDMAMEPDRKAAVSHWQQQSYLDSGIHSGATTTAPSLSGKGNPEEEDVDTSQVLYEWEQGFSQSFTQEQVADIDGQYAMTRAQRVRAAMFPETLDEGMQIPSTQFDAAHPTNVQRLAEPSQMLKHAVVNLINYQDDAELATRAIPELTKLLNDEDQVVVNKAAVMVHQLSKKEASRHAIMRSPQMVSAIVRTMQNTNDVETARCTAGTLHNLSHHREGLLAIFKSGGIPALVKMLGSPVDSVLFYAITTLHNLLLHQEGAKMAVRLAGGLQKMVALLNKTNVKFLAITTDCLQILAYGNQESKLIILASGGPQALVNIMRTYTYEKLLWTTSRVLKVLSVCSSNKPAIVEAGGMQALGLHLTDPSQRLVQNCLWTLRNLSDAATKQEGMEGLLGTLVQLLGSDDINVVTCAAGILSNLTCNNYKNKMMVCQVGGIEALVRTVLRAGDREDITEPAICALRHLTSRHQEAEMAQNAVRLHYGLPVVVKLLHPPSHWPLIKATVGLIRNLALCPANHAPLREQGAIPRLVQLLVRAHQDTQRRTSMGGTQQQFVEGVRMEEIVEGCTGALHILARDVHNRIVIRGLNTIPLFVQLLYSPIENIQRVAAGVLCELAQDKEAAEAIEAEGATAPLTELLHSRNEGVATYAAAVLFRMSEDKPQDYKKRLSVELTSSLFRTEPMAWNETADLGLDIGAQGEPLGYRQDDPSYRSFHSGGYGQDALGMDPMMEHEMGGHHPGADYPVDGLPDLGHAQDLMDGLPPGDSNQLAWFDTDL

T2: beta-catenin in DLD1 TCF/LEF luciferase reporter cells (Homo sapiens (Human), UniProt P35222 1-781)
T2 sequence: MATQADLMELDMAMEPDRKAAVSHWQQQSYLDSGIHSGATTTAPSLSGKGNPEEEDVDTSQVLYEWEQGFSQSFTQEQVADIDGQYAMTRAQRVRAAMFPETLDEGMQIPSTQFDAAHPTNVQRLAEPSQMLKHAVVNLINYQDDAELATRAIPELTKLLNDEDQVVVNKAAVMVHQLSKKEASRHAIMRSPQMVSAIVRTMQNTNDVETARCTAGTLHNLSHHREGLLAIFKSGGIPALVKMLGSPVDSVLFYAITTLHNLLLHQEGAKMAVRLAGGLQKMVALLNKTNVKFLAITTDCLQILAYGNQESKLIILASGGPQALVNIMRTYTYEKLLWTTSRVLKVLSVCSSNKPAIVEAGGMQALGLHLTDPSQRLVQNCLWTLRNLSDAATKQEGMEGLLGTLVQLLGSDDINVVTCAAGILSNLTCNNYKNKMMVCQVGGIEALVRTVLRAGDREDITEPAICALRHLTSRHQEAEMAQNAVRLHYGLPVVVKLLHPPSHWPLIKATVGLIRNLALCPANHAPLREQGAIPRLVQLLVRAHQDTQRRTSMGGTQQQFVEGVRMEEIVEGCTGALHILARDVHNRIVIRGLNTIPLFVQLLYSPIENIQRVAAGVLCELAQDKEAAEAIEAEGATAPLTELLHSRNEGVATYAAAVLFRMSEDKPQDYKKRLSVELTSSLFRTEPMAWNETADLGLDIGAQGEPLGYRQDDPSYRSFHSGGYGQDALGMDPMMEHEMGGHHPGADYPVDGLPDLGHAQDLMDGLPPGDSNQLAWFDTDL

T3: B-cat-Halo (UniProt P35222 1-781)
T3 sequence (looked up): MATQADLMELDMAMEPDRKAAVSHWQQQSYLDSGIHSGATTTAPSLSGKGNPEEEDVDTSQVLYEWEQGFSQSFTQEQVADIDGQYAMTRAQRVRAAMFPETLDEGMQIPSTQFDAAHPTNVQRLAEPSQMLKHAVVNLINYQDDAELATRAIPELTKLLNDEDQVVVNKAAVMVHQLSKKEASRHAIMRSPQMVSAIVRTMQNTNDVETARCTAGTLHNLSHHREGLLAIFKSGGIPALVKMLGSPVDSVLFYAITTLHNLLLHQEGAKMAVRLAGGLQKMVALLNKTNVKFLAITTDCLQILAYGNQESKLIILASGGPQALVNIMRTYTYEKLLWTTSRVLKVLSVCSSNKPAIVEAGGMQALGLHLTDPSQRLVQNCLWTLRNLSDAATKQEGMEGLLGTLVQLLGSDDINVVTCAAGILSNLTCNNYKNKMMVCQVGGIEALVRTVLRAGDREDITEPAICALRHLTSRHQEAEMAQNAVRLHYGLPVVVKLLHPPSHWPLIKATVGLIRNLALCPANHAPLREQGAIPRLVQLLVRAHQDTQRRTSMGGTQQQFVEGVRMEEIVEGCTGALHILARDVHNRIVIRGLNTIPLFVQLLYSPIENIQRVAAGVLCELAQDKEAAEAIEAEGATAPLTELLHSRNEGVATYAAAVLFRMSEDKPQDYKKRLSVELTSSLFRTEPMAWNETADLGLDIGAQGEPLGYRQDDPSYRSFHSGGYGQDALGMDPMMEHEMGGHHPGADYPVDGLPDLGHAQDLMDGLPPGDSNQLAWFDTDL

T4: beta-catenin in DLD1 TCF/LEF luciferase reporter cells (UniProt P35222 2-781)
T4 sequence (looked up): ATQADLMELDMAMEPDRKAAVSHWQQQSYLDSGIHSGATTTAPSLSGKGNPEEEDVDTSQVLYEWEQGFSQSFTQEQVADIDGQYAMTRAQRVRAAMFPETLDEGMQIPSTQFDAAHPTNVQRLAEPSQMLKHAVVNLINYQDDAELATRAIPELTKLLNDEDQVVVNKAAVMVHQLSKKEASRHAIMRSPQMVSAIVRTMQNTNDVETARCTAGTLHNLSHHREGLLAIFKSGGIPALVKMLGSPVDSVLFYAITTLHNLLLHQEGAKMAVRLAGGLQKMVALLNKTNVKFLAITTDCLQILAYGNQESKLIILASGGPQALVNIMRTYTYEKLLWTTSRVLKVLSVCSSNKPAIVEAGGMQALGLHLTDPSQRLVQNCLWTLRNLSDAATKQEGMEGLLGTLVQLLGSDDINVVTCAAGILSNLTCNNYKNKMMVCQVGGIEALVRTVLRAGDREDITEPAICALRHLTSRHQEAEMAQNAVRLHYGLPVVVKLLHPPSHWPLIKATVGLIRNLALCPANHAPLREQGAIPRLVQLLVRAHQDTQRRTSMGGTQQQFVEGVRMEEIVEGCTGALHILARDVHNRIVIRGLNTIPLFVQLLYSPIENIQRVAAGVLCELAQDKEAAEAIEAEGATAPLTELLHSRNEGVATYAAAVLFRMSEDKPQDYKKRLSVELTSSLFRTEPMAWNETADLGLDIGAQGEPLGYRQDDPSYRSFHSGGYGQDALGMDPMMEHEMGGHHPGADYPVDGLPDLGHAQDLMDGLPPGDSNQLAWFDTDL


Key:
Experiment in all cases: cell-based or functional assay
B-cat-Halo [1] = molecular target: T1, B-cat-Halo
[2] = molecular target: T2, beta-catenin in DLD1 TCF/LEF luciferase …
B-cat-Halo [3] = molecular target: T3, B-cat-Halo
[4] = molecular target: T4, beta-catenin in DLD1 TCF/LEF luciferase …

| Binder | NanoBRET Abs IC50 (B-cat-Halo [1]) [µM] | DLD1 4% Abs IC50 [2] [µM] | NanoBRET Abs IC50 (B-cat-Halo [3]) [µM] | DLD1 4% Abs IC50 [4] [µM] |
| --- | --- | --- | --- | --- |
| Ac-[αAllylPro]D[tBuAla][B5(3)]D[Phe(3-COOH)]AAFL[PyrS2(4)][3Thi][Bta]NAA[dA]-NH2 (staple 1-4, 4-11; reading uncertain) [I-2047] | 2.6 | 1.3 | – | – |
| Ac-[αAllylPro]D[tBuAla][B5(3)]D[(Pfbn)GA]AAFL[PyrS2″][3Thi][Bta]Q-NH2 (staple 1-4, 4-11) [I-1632] | – | – | 6.5 | 2.6 |
